From IntAct's records for PubMed 16763556

Key:
[1] = target: T1, polh_human POLH (UniProt Q9Y253)
T1 sequence: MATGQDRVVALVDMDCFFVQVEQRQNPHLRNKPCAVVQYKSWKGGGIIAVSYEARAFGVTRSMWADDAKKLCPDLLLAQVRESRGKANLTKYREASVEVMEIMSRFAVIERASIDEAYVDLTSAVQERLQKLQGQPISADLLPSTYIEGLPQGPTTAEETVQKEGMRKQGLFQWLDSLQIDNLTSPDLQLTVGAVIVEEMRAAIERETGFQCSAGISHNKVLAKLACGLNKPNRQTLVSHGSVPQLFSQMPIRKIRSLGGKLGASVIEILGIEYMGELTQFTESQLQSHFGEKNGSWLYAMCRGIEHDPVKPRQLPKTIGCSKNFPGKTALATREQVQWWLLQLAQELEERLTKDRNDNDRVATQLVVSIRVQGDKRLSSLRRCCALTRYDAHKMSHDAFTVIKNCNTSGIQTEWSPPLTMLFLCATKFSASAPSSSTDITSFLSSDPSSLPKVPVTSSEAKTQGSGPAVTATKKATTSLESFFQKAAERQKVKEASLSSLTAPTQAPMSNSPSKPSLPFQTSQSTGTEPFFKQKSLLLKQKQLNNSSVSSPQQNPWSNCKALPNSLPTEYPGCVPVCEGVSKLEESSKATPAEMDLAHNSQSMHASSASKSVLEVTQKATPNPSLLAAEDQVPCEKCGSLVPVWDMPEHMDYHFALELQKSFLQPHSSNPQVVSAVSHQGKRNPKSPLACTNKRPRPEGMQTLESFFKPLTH

[2] = target: T2, poli_human POLI (UniProt Q9UNA4)
T2 sequence: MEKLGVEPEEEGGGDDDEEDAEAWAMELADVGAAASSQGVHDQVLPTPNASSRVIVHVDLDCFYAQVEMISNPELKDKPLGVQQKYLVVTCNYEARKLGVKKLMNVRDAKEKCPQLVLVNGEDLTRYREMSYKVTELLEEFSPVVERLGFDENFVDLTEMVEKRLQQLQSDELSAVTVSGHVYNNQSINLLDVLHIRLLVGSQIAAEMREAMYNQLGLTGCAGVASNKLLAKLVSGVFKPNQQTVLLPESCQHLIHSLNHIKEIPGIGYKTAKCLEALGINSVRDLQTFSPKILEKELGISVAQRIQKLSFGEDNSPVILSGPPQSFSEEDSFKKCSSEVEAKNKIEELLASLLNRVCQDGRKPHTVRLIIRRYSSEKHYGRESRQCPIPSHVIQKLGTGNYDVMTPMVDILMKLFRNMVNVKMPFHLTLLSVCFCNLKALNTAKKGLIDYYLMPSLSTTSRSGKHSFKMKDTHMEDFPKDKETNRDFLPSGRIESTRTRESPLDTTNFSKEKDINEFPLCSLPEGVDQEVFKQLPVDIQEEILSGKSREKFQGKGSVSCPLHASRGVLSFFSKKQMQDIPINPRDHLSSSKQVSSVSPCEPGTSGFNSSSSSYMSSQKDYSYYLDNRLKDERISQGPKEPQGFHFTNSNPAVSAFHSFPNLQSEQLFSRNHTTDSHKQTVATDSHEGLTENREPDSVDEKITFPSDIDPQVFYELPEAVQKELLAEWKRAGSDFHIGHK

effect of a mutation on the interaction [1]	effect of a mutation on the interaction [2]	Substance
disrupting interaction	disrupting interaction	Polyubiquitin-C (Homo sapiens) (from UniProt P0CG48) G75S
disrupting interaction	disrupting interaction	Polyubiquitin-C (Homo sapiens) (from UniProt P0CG48) G76S
